Experimental data taken from US20130236459A1 (MERRIMACK PHARMACEUTICALS, published 2013).
Where two headings read alike, the source gives them in different places.

Key:
rat ErbB3-His = target: T1, rat ErbB3-His (rat, UniProt Q62799 20-641, limits assumed); assay: ELISA, species specific ErbB3-His coated plate
T1 construct: not shown: His tag, not further described for this species form
Protocol: (§1) 96-well Reacti-bind® plates (Pierce, Fisher cat. No. PI-I5041) are coated with 50 ul of species specific ErbB3-His or IGF-1R-His (R&D Systems, cat. No. 348-RB and 305-GR, respectively) at 2 ug/ml in PBS and incubated overnight at 4° C. The next day plates are washed with PBS+0.05% Tween-20 (PBS-T) and blocked for 1 hr. at room temperature with 100 ul of Protein-Free Blocking Buffer (Pierce). Plates are washed with PBS-T and 50 ul of each PBA is added in duplicate. Concentrations start at 500 nM (in PBS-T) and included ten additional two-fold dilutions and one blank (PBS-T only). Plates are incubated at room temperature for two hours and then washed with PBS-T. 50 ul of anti-Fc-HRP (Jackson Labs) is added at 1:40,000 in PBS-T, and plates are incubated in the dark for 1 hr. at room temperature. Plates are again washed with PBS-T and 100 ul of TMB substrate (Thermo Scientific, TMB and peroxide solution mixed 1:1) is added. The plates are incubated for 5-15 minutes at room temperature until a blue color develops, and the reaction is stopped with 100 ul of STOP solution (Cell Signaling Technology). The absorbance is read at 450 nm on a PerkinElmer Envision plate reader, and binding curves are generated using GraphPad Prism.

mouse ErbB3-His = target: T2, mouse ErbB3-His (mouse, UniProt Q61526 20-641, limits assumed); assay: ELISA, species specific ErbB3-His coated plate
T2 construct: not shown: His tag, not further described for this species form
T2 sequence (Q61526 20-641 limits assumed): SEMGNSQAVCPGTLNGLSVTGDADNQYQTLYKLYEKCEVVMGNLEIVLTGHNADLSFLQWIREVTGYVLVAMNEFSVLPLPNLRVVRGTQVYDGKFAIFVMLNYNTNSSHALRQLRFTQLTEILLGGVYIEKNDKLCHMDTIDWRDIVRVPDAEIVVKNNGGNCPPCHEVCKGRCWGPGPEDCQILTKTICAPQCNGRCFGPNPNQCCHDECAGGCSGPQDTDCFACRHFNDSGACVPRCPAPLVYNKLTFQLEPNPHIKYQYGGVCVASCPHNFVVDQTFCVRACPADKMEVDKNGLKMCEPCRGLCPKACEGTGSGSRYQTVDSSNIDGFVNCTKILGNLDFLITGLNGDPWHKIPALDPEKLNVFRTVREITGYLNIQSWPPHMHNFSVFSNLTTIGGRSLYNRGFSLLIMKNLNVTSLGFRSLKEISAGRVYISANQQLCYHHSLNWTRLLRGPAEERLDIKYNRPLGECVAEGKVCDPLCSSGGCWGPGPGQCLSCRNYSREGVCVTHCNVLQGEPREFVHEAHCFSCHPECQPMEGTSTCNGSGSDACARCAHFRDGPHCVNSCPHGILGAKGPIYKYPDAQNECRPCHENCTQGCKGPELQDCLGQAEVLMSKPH
Protocol: as §1

[1] = target: T3, IGF-1R (receptor for insulin-like growth factor 1), endogenous on human tumor cell lines (human, UniProt P08069 31-1367); assay: cell-based or functional assay
T3 sequence (P08069 31-1367): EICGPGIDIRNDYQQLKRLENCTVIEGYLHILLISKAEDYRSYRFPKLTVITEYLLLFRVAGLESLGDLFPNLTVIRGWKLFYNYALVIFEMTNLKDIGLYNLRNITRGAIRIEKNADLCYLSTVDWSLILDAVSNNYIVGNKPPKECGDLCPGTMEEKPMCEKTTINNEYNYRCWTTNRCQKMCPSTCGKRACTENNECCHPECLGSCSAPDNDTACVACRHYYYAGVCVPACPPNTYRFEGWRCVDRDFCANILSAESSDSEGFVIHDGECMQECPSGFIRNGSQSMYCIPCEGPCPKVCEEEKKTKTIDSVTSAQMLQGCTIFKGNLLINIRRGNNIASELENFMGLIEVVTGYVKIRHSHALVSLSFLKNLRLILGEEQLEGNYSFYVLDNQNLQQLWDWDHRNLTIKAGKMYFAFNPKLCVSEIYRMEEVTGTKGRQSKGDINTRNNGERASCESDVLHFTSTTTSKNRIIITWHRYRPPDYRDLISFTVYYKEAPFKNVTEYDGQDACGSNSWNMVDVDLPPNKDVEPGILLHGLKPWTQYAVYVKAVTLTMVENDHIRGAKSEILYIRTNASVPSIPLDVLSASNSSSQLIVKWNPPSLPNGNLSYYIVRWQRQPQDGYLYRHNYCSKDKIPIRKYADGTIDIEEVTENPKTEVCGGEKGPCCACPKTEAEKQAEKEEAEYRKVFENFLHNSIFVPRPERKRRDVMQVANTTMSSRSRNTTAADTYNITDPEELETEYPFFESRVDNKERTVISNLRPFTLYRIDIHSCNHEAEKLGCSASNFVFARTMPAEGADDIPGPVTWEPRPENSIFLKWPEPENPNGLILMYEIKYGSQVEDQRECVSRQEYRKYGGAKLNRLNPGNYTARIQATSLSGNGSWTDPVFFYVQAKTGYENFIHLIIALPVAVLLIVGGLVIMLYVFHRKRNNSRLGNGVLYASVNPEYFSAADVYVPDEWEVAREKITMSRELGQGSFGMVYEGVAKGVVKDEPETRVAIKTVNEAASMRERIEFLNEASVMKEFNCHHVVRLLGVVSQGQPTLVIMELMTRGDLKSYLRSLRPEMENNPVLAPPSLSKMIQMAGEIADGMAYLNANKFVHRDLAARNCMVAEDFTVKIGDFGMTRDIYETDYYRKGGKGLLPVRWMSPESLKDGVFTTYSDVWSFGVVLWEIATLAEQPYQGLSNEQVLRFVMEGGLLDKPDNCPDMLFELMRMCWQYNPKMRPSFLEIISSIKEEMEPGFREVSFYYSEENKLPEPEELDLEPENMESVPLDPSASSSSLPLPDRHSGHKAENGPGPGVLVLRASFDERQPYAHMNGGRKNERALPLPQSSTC

[2] = target: T4, ErbB3 (HER3), endogenous on human tumor cell lines (human, UniProt P21860 20-1342); assay: cell-based or functional assay
T4 sequence (P21860 20-1342 limits assumed): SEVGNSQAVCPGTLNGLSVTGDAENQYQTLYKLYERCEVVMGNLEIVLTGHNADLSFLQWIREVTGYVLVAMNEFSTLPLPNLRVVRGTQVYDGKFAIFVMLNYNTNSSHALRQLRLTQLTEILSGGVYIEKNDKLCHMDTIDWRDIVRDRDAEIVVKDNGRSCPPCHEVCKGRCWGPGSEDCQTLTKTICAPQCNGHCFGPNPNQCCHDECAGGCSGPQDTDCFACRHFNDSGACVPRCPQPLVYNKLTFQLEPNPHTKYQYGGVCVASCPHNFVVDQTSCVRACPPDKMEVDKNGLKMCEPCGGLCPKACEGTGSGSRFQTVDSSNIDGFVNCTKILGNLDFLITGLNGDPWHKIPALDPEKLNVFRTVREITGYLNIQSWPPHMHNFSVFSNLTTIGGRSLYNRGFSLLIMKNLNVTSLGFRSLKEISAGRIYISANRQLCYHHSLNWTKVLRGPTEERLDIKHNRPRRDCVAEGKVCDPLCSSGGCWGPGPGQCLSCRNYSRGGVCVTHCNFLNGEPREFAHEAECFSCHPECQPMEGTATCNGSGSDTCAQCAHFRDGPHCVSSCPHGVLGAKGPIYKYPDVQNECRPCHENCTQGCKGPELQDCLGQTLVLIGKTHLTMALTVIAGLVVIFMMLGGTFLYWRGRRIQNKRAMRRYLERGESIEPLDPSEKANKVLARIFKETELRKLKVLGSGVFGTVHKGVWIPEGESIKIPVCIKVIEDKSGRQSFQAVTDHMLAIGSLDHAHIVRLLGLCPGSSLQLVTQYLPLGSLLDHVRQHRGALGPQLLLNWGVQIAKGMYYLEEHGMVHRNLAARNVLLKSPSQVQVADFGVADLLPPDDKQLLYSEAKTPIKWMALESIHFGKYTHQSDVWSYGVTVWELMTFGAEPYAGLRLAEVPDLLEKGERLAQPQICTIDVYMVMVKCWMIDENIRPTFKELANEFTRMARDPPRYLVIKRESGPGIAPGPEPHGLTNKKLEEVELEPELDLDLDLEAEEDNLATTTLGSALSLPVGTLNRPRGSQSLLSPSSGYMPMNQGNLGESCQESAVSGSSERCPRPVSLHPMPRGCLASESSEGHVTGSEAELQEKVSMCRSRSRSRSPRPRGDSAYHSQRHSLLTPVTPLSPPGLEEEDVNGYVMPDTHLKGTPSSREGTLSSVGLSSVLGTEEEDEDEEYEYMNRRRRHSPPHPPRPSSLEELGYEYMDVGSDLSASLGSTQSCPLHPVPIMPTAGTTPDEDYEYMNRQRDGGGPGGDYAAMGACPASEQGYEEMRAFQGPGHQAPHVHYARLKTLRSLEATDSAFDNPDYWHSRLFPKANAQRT

mouse IGF-1R-His = target: T5, mouse IGF-1R-His (mouse, UniProt Q60751 31-936, limits assumed); assay: ELISA, species specific IGF-1R-His coated plate
T5 construct: not shown: His tag, not further described
T5 sequence (Q60751 31-936 limits assumed): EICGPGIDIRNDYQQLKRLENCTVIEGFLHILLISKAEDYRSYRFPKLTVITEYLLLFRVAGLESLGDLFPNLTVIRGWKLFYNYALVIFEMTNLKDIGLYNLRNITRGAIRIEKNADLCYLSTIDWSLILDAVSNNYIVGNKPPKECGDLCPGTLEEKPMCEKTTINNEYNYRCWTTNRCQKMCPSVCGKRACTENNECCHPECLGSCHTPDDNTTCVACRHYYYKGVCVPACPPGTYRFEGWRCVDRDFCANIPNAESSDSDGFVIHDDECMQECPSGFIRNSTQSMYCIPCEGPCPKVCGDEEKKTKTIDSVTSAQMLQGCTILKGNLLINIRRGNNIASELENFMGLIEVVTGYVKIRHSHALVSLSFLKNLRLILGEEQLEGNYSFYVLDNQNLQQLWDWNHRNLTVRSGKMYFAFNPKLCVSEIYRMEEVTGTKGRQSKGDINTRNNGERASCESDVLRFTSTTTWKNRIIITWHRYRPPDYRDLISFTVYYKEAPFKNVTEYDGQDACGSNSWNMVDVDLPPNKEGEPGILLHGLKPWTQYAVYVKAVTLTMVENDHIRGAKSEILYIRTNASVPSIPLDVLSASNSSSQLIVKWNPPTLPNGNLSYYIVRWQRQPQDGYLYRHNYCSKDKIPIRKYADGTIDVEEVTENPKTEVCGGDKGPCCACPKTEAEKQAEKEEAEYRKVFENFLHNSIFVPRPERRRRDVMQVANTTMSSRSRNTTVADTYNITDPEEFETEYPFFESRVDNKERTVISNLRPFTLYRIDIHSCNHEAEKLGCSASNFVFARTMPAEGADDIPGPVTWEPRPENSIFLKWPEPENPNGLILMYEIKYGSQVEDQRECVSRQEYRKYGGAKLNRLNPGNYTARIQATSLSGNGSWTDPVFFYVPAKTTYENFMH
Protocol: as §1

[3] = target: T3, IGF-1R (receptor for insulin-like …); assay: cell-based or functional assay; remark: listed apart in the source
[4] = target: T4, ErbB3 (HER3), endogenous on human tumor …; assay: cell-based or functional assay; remark: listed apart in the source
[5] = target: T3, IGF-1R (receptor for insulin-like …); assay: cell-based or functional assay; remark: listed apart in the source
[6] = target: T4, ErbB3 (HER3), endogenous on human tumor …; assay: cell-based or functional assay; remark: listed apart in the source
[7] = target: T3, IGF-1R (receptor for insulin-like …); assay: cell-based or functional assay; remark: listed apart in the source

T1 sequence (Q62799 20-641 limits assumed): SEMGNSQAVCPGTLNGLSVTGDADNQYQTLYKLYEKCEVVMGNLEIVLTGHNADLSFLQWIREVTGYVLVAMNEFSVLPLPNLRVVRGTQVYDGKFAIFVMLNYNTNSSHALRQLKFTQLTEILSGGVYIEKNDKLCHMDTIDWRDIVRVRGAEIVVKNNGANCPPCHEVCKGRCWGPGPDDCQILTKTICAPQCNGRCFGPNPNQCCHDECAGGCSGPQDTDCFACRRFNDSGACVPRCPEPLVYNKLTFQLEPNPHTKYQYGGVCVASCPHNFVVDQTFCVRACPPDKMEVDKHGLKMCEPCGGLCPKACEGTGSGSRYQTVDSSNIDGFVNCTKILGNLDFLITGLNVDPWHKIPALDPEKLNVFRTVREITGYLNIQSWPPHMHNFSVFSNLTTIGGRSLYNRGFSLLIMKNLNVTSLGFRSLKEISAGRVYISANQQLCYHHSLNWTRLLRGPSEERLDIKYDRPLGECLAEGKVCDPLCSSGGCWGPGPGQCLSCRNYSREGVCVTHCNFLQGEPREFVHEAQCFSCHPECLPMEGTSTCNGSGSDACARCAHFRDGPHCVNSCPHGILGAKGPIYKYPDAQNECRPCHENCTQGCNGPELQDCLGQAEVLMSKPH

B1: M7-G1-M78 (bispecific antibody, human IgG1, lambda)
heavy: not shown
light: SSELTQDPAVSVALGQTVRITCQGDSLRSYYASWYQQKPGQAPVLVIYGKNNRPSGIPDRFSGSSSGNTASLTITGAQAEDEADYYCNSRDTPGNKWVFGGGTKVTVIGQPKAAPSVTLFPPSSEELQANKATLVCLVSDFYPGAVTVAWKADGSPVKVGVETTKPSKQSNNKYAASSYLSLTPEQWKSHRSYSCRVTHEGSTVEKTVAPAECS
notes: IgG1-(scFv)2: anti-ErbB3 Fab, anti-IGF-1R scFv; also called M7-M78; M7-78
- binding result (rat ErbB3-His): binds
- binding result (mouse ErbB3-His): binds
- pIGF1R % Inhibition (BxPC-3) [1]: 88%
- pIGF1R IC50 (BxPC-3) [1]: 1.3e-09 M (inferred)
- pErbB3 % Inhibition (BxPC-3) [2]: 111%
- pErbB3 IC50 (BxPC-3) [2]: 2.6e-11 M (inferred)
- binding result (mouse IGF-1R-His): binds
- pIGF1R IC50 (BxPC-3) [3]: 1.3e-09 M (inferred)
- pErbB3 IC50 (BxPC-3) [4]: 2.6e-11 M (inferred)
- pAKT IC50 (BxPC-3, IGF1 40 ng/ml) [5]: 3.8e-10 M
- pAKT IC50 (BxPC-3, IGF1 400 ng/ml) [5]: 6.4e-10 M
- pIGF1R IC50 (BxPC-3, IGF1 40 ng/ml) [5]: 1e-09 M
- pIGF1R IC50 (BxPC-3, IGF1 400 ng/ml) [5]: 2.4e-09 M
- pAKT IC50 (BxPC-3, HRG 20 ng/ml) [6]: 7.12e-11 M
- pAKT IC50 (BxPC-3, HRG 200 ng/ml) [6]: 6.46e-11 M
- pErbB3 IC50 (BxPC-3, HRG 20 ng/ml) [6]: 6.16e-11 M
- pErbB3 IC50 (BxPC-3, HRG 200 ng/ml) [6]: 6.53e-11 M
- % IGF1R Downregulation (A549, 24 h) [7]: 48%
- % IGF1R Downregulation (BxPC-3, 24 h) [7]: 53%

B2: P4-G1-M1.3 (bispecific antibody, human IgG1, kappa)
heavy: not shown
light: DIQMTQSPSSLSASLGDRVTITCRASQGISSYLAWYQQKPGKAPKLLIYAKSTLQSGVPSRFSGSGSGTDFTLTISSLQPEDSATYYCQQYWTFPLTFGGGTKVEIKRTVAAPSVFIFPPSDEQLKSGTASVVCLLNNFYPREAKVQWKVDNALQSGNSQESVTEQDSKDSTYSLSSTLTLSKADYEKHKVYACEVTHQGLSSPVTKSFNRGEC
- pIGF1R % Inhibition (BxPC-3) [1]: 92%
- pIGF1R IC50 (BxPC-3) [1]: 1.8e-10 M (inferred)
- pErbB3 % Inhibition (BxPC-3) [2]: 94%
- pErbB3 IC50 (BxPC-3) [2]: 5.5e-11 M (inferred)
- pIGF1R IC50 (BxPC-3) [3]: 1.1e-09 M (inferred)
- pErbB3 IC50 (BxPC-3) [4]: 5.3e-11 M (inferred)
- pAKT IC50 (BxPC-3, IGF1 40 ng/ml) [5]: 1.4e-10 M
- pAKT IC50 (BxPC-3, IGF1 400 ng/ml) [5]: 2.1e-10 M
- pIGF1R IC50 (BxPC-3, IGF1 40 ng/ml) [5]: 1.2e-10 M
- pIGF1R IC50 (BxPC-3, IGF1 400 ng/ml) [5]: 9.9e-11 M
- pAKT IC50 (BxPC-3, HRG 20 ng/ml) [6]: 3.97e-11 M
- pAKT IC50 (BxPC-3, HRG 200 ng/ml) [6]: 4.09e-11 M
- pErbB3 IC50 (BxPC-3, HRG 20 ng/ml) [6]: 3.12e-11 M
- pErbB3 IC50 (BxPC-3, HRG 200 ng/ml) [6]: 2.72e-11 M
- % IGF1R Downregulation (A549, 24 h) [7]: 72%
- % IGF1R Downregulation (BxPC-3, 24 h) [7]: 71%

B3: B60-G1-P4 (bispecific antibody, human IgG1, lambda)
heavy: not shown
light: SSELTQDPAVSVALGQTVRITCQGDSLRSYYASWYQQKPGQAPVLVIYGKNNRPSGIPDRFSGSSSGNTASLTITGAQAEDEADYYCNSRDWPGNQWVFGGGTKVTVLGQPKAAPSVTLFPPSSEELQANKATLVCLVSDFYPGAVTVAWKADGSPVKVGVETTKPSKQSNNKYAASSYLSLTPEQWKSHRSYSCRVTHEGSTVEKTVAPAECS
- pIGF1R % Inhibition (BxPC-3) [1]: 88%
- pIGF1R IC50 (BxPC-3) [1]: 4.4e-09 M (inferred)
- pErbB3 % Inhibition (BxPC-3) [2]: 99%
- pErbB3 IC50 (BxPC-3) [2]: 4e-11 M (inferred)
- pIGF1R IC50 (BxPC-3) [3]: 2.2e-08 M (inferred)
- pErbB3 IC50 (BxPC-3) [4]: ~2.4e-14 M (inferred)
